This data set concerns the molecule itself. In words: ITC. (In ITC the heat of successive injections is recorded.)

B1: HDP1 DNA-binding domain (HDP1 aa2991-3078) (domain or fragment, P. falciparum, UniProt A0A2I0C2C6 2991-3078, looked up)
chain: SEVQVSNINTPSSYNISARRRRRIGNNGPPSAEELNRLLNIQHLTIPEIATIYGVHRTTIARWCNIRNITSNSMNNSPGKRRKNEDNK
Take B1: the binding result is “binds”.

Source of the values: article PMC8852293 (Nature microbiology, 2020).
